According to patent publication US20210246195A1 (CZ BIOHUB SF, published 2021):

target: T1, BSA (UniProt P02769 25-607); experiment: indirect ELISA heat map, hIgG subtracted
T1 construct: also called bovine serum albumin; immobilized BSA
T1 sequence (P02769 25-607 limits assumed): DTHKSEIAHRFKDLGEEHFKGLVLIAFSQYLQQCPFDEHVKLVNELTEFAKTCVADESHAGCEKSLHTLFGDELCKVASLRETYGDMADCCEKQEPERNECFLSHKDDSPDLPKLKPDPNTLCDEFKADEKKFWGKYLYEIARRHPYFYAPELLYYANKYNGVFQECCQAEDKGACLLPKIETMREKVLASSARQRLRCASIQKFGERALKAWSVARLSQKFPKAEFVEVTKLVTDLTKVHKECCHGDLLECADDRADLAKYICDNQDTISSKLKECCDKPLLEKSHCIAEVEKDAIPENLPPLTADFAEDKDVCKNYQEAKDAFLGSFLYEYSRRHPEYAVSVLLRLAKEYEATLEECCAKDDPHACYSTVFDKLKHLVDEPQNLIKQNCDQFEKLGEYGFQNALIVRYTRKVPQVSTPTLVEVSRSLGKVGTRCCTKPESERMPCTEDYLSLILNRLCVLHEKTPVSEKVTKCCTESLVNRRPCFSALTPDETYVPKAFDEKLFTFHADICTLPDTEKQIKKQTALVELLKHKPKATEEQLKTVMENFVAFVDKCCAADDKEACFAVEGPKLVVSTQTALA

Binder | binding result
PA01P2E10 (antibody, V domains shown, subject PA01; also called Clone PA01P2E10) VH: QVQLVQSGAEVKKPGASVKVSCKASGYTFTTYGISWVRQAPGQGLEWMGWISAYNGNTTYAQNFHARVTMTTDTSTSTAYMELRSLRSDDTAVYFCARTSARTITIFGVLIPAGLNLDYWGQGTLVTVSS VL: QSALTQPASVSGSPGQSITISCTGTGSDVGRYNYVSWYQQHPGKAPKFMIYDVSNRPSGVSNRFSASKSGNTASLTISGLQAEDEADYYCSSYTSTSTLVFGGGTKLTVL | no binding (tested: 2 ng/µL)
PA01P1D06 (antibody, V domains shown, subject PA01; also called Clone PA01P1D06) VH: QVTLRESGPALVEVTQTVTLTCNFSGFSLHTRGMYVNWIRQPPGKALEWLAVINWDDDKYYTPSLKNRLTISKDTSKNQVVLTMTNMDPVDTATYYCARTDYGGYGPEGFDYWGQGTLVTVSS VL: EIVMTQSPATLSVSPGESATLSCRASQSVRSNLAWYQQKPGQAPRLLIYGASTRAPGVPARFTGSESGREFTLTISSLQSEDFAVYYCQQYNNWPPYTFGQGTKLEIK | no binding (tested: 2 ng/µL)
PA01P4C11 (antibody, V domains shown, subject PA01; also called Clone PA01P4C11) VH: EVQLLESGGGLLQLGGSLRLSCAASGFTFSSYVMSWVRQAPGKGLEWVSLITGSGGNTYYADSVKGRFTISRDNSKNTLFLQMNSLRVEDTAIYYCVKTDFYDSSGYYFHDAFHIWGQGTMVTVSS VL: QTVVTQEPSLTVSPGGTVTLTCASSTGSVTSGYYPNWFQQKPGQAPRTLIYGTSNKHSWTPARFSGSLLGGKAALTLSDVQPEDEAEYYCLLYYGGAYVFGTGTKVTVL | no binding (tested: 2 ng/µL)
PA01P2B03 (antibody, V domains shown, subject PA01; also called Clone PA01P2B03) VH: EVQLVQSGAEVKKPGESLKISCKGSGYNFTSSWIGWVRQMPGKGLEWMGIIHPGDSDTRYSPSFQGQVTISADKSLTTAFLQWSSLKTSDTAIYYCARHGSTMLWGDAFDIWGQGTMVTVSS VL: SYELTQPPSVSLSPGQTARITCSGDALPKHYAYWYQQKPGQAPVLVIYKDTERPSGIPERFSGSSSGTTVTLTISGVQAEDEADYYCQSSDSTGEVFGGGTKLTVL | no binding (tested: 2 ng/µL)
PA01P2D11 (antibody, V domains shown, subject PA01; also called Clone PA01P2D11) VH: QLQLQESGSGLVKPSQTLSLTCDVSGDSMNDDVYTWSWIRQPPGRGLEWIGYISHTGNTFYNSSLQSRVTMSVDTSKNQFSLKLSSVTIADTAVYYCARLTFLFSAPFSSFNWFDPWGQGILVTVSS VL: QSVLTQPPSVSGAPGQTITISCTGTPSNFGADYDVHWYQQRPGTAPKLLIFADKHRPSGVPDRFSGSRSGTSASLAISGLQAEDEADYYCQSYDSGVVGLWVFGGGTKVTVL | no binding (tested: 2 ng/µL)
PA01P2C12 (antibody, V domains shown, subject PA01; also called Clone PA01P2C12) VH: HVQLQESGPGLVKSSETLSLTCNVSSDSFSDHYWSWVRQPAGKGLQWLGRIYNTGTTTYNPSLNRRITMSVDTSKNQFSLRLTSVTAADTAVYYCAARHYHYDKTIWGQGTLVTVSS VL: NFMLTQPHSVSESPGKTVTISCTRSSGSIASNYVQWYQQRPGSPPTTVIYEDNQRPSGVPDRFSGSIDSSSNSASLTISGLKPEDEADFYCQSYDSDDREVFGGGTRLTVL | no binding (tested: 2 ng/µL)
PA01P2B05 (antibody, human IgG1, V domains shown) VH: EVQLLESGGGLVQPGGSLRLSCVASGFTFSGHAMSWVRQAPGKGLEWVSGISGSGGSTYYADSVKGRFTISRDNSKKTVDLQMNNLRAEDTAIYYCAKDLHFDTSGYYYSMIFDYWGQGTLVPVSS VL: QSALAQPASVSGSPGQSITISCTGTSSDISDYNYVSWYQQHPGKAPKLILYDVNNRPSGVSSRFSGSKSGDTASLTISGLQPEDEADYYCSSYTSTKIFGGGTKVTVL | no binding (tested: 2 ng/µL)
PA01P2E07 (antibody, V domains shown, subject PA01; also called Clone PA01P2E07) VH: QLQLQESGSGLVKPSQTLSLTCAVSGGSITSGTYSWTWIRQSPEKGLEWIGYIYYTGSTYYNPSLGRRVTISGDTSNNEFSLNLKSVTAADTAVYYCARGIHRGGVLDFWGQGILVTVSS VL: EIVLTQSPATLPLSPGERATLSCRASQSLDKYLAWYQQKPGQAPRLLIYDTSKRATGIPARFSGSGSGTDFTLTISSLEPEDFAVYFCQQRNNWPPYTFGQGTKVEMK | no binding (tested: 2 ng/µL)
PA01P2D09 (antibody, human IgG1, V domains shown, also called PA1P2D09) VH: EVQLLESGGGLVQPGGSLRLSCAVSGLKFSSYAMSWVRQAPGKGLEWVSVVSGSSGSTFYAVSVEGRFSISRDNSNNMLYMDMHSLRVEDTAKYYCAKVVGWYYDRNGNRRPKGFRAFDVWGQGTMVIVSS VL: QSVLTQPPSASGTPGQRITIACSGTTSNIGGNSVNWYQQFPGAAPRLLIFDYDQRPSGVPARFSGSSSGSSGYLAISGLQSEDEADYYCSSWDDNLNGWVFGGGTKLTVL | no binding (tested: 2 ng/µL)
PA01P2G07 (antibody, V domains shown, subject PA01; also called Clone PA01P2G07) VH: QVLLVQSGSEVKNPGASIRVSCKTSGYMFTNNGIAWVREVPTQGLEWMGWISTYSGATHYAPNLHGRITMTADTSASTAYMELRSLQSGDTGVYYCARLWFGKLGLDFWGQGTQVTVSS VL: QSVLTQPPSASGTPGQRVIISCSGSTSNIGTKTVNWYQHLPGTAPKLLIYNNNQRPSGVPDRFSGSKSGTSASLTISGLQSEDEADYYCAAWDDSLNGRGLFGPGTKVTVL | no binding (tested: 2 ng/µL)
PA01P2B04 (antibody, V domains shown, subject PA01; also called Clone PA01P2B04) VH: QVQLQQWGAGLLKPSETLSLTCTVIGTSFSNYYWSWIRQPPGKGLQWIGEITHSDSANYNPSLKSRVIISIDSSKNQLSLNLSSVTAADTAVYYCARGSKDYYDRSTFSWFDPWGQGTLVTVSS VL: EIVMTQSPATLSVSPGERATLSCRASQNISNKLAWYQQKPGQAPRLLIYDASTRATGVPARFSCSVSGTAFTLTINRLQSEDFAVYYCQQYYYWPPPYTFGHGTKLEIK | no binding (tested: 2 ng/µL)
PA01P2E05 (antibody, V domains shown, subject PA01; also called Clone PA01P2E05) VH: QVQLVESGGGFVKPGGSLRLSCAVSGFTFSDYYMSWVRQAPGKGLEWLSHISSDGSDTNYADSVKGRFSISRDNAKNSVFLQMNTLRVEDTAVYYCARNALTNAYDMSGFRNWGQGTLVTVSS VL: NFMLTQPHSVSESPGKTVILSCTRSSGSIASNYVRWYQQRPGSAPTTVIYEDSRRPSSVPDRFSGSIDSSSNSASLTISGLKTEDEADYYCQSFDSSSRKVVFGGGTKLTVL | no binding (tested: 2 ng/µL)
PA01P2C09 (antibody, V domains shown, subject PA01; also called Clone PA01P2C09) VH: QVDLVESGGGYVKSGGSLRLSCAASGFRFSDYYMSWVRQAPGKGLEWLSHISSDSSDTNYADSVKGRFSISRDNAKNSVFLQMNTLRAEDTAVYYCARNALTNAYDMSGFRNWGQGILVTVSS VL: NFMLTQPHSVSESPGKTVILSCTRSSGSIATNYVRWYQQRPGSAPTTVIYEDSRRPSSVPDRFSGSIDSSSNSASLTISGLRTEDEADYYCQSFDTSSRKVVFGGGTKLTVL | no binding (tested: 2 ng/µL)
PA01P2B10 (antibody, V domains shown, subject PA01; also called Clone PA01P2B10) VH: QVQLQQWGAGLLKPSETLSLTCGVHGGSLNNYYWSWIRQPPGKGLEWIGEVYHSGSINYNPSLKSRVTMSVDTSKNQFSFNLSSVTAADTAVYYCARGAYDSRGFWTLDAFNTWGQGTMVIVSS VL: DIQMTQSPSALSASLGDRVTITCRASESINSWLAWYQQKPGKAPKLLIYKASTLESGVPSRFSGSGSGTEFTLTISSLQPDDFATYYCHQYNRYSYTFGQGTKLDIK | no binding (tested: 2 ng/µL)
PA01P2E08 (antibody, human IgG1, V domains shown) VH: QVQLVESGGGVVQPGRSLRLSCVASGFDLNAYGMHWVRQAPGKGLDWVAATSRGGTKKYYADSVKGRFTISRDVSKNTLYLQMGSLRTGDTAIYYCGVGMEDVFDIWGQGTMVTVSP VL: QSVLTQPPSVSAAPGQKVTISCSENNSNIGNRNVSWYQQLPGKAPKLFIYDNNERPSGIPARFSGSKSGTSATLVITGLQTGDEADYYCGTWDRSLSVWVFGGGTKLTVL | no binding (tested: 2 ng/µL)
PA01P3E08 (antibody, V domains shown, subject PA01; also called Clone PA01P3E08) VH: QVQLVQSGAEVKKPGASVKVSCKASGYTFIRYDIHWVRQATGQGLEWMGWMNPNNGKSGFAQKFEGRVTLTRNTSVTSTYMQLSSLGLEDTAVYYCVRAGYSYGWGFDYWGQGSLVTVSS VL: NFTLTQPHSVSGSPGKTVTISCTRSSGGIASSHVQWYQQRPASAPTTLIFEDDQRSSGVPDRFSGSIDTSSNSAYLTISGLEAEDEADYYCQSYDNSMWVFGGGSKVTVL | no binding (tested: 2 ng/µL)
PA01P2D10 (antibody, human IgG1, V domains shown) VH: EVLLLESGGGLVHPGGTLRLSCAASGFTFRNSAMTWVRQAPGKGLEWVSSIGGSGAKSYYADSVKGRFTISRDNSKNTLYLEMNTLRVDDTAIYYCAKDQLNCYDLWSGDYCWFDTWGQGTLVTVSS VL: not shown | no binding (tested: 2 ng/µL)
PA01P2B09 (antibody, V domains shown, subject PA01; also called Clone PA01P2B09) VH: QVEVVESGGGVVQPGKSLRLSCAASGFKFNVYGIHWVRQAPGKGLEWVAVVWYDGSNKYYADSVKGRFTISRDNSKNTTYLQMDSLRVDDTAVYYCARELQYSNYDYFYAMDVWGQGTTVTVSS VL: DIQMTQSPPSLSASVGDRVTITCRASQDIDNYLVWFQQKPGRAPKSLIYAASSLQSGVPSKFSGSGSGTEFTLTISSLQPEDFATYYCQQYNSFPYTFGQGTKLEIK | no binding (tested: 2 ng/µL)
PA01P2C04 (antibody, V domains shown, subject PA01; also called Clone PA01P2C04) VH: QVQLQESGPGLVKPSETLSLTCSVSGGSISSHYWSWIRQPPGRGLEWIAYISYSGRTKYNPSLKSRVTISEDTSKNQFSLKLSSVTPADTAVYYCARIYGDYGPFIDYWGQGTLVTVSS VL: DIQMTQSPSSLSASVGDRVTITCRASQTISTYLNWYQQKPGTAPMLLIYGAYSLHSGVPSRFSGSGSGTDFTLTISSLQPEDFATYYCQQSSSLPLTFGGGTKVEIK | no binding (tested: 2 ng/µL)
PA01P2D04 (antibody, human IgG1, V domains shown) VH: QVQLLQSGPEVKQPGASVQVSCQTSGYTFTGYYIHWVRQAPGQGLEWVGWINPNRGHTNYGPAFQGRLTLTADTSSSTAYLELTRLRSDDTAVYYCARDRLTGGRDAFEIWGQGTMLIVSS VL: DIQLTQSPSSLSASVGDRVTITCRASQSISSYLNWYQQKPGKAPKLLISVASSLQDGVPPRFSGSRSGTEFTLTISSLQPEDFAIYYCQQSYSLSWTFGQGTKVEIK | no binding (tested: 2 ng/µL)
PA01P2B12 (antibody, human IgG1, V domains shown) VH: QVQLVQSGAEVKQPGASVQVACQTSGYIFTAYYIHWLRQAPGQGLEWVGWINPNRGHTNYAPGFQGRLTLTADTSSSTAYLALTRLASDDTAVYYCARDRLTGGRDAFEIWGQGTMLIVSS VL: DIQLTQSPSSLSASVGDRVTITCRASQSVSSYLNWYQQKPGEAPKLLISAASSLQDGVPPRFSGSRSGTEFTLTISSLQPEDFAIYYCQQSYSLWWTFGQGTKVEIK | no binding (tested: 2 ng/µL)
